# Columns and labels:
# [1] = molecular target: FH-AGO2 mono-methylated at K726 (ectopically expressed in MCF-7 cells with LSD1 inhibited) (UniProt Q9UKV8)
# FH-AGO2-K726R = FH-AGO2-K726R (UniProt Q9UKV8)
# Chain of FH-AGO2-K726R (Q9UKV8 whole entry K726R): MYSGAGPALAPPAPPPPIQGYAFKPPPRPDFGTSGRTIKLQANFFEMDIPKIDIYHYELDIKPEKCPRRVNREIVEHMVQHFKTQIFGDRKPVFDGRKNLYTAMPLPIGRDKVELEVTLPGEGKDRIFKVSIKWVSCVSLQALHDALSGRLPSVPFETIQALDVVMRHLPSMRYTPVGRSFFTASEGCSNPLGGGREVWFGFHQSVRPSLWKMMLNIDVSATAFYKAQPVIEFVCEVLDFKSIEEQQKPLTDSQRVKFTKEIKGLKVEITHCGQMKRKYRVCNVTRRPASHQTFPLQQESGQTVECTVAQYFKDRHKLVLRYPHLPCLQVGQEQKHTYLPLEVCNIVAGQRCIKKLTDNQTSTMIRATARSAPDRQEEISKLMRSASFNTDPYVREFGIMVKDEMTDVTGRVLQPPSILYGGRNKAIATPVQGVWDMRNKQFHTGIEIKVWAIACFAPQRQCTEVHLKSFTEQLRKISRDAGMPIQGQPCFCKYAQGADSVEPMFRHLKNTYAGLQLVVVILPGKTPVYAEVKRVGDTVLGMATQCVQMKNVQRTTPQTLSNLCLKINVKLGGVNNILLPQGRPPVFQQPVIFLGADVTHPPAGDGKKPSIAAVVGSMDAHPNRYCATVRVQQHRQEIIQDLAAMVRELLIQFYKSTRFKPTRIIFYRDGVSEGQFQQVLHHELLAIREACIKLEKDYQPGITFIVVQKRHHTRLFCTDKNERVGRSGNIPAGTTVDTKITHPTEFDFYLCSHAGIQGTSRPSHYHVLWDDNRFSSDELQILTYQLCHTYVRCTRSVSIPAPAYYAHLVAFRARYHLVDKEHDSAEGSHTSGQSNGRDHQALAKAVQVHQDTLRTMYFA
# Chain of FH-AGO2 mono-methylated at K726 (ectopically expressed in MCF-7 cells with LSD1 inhibited) (Q9UKV8 whole entry): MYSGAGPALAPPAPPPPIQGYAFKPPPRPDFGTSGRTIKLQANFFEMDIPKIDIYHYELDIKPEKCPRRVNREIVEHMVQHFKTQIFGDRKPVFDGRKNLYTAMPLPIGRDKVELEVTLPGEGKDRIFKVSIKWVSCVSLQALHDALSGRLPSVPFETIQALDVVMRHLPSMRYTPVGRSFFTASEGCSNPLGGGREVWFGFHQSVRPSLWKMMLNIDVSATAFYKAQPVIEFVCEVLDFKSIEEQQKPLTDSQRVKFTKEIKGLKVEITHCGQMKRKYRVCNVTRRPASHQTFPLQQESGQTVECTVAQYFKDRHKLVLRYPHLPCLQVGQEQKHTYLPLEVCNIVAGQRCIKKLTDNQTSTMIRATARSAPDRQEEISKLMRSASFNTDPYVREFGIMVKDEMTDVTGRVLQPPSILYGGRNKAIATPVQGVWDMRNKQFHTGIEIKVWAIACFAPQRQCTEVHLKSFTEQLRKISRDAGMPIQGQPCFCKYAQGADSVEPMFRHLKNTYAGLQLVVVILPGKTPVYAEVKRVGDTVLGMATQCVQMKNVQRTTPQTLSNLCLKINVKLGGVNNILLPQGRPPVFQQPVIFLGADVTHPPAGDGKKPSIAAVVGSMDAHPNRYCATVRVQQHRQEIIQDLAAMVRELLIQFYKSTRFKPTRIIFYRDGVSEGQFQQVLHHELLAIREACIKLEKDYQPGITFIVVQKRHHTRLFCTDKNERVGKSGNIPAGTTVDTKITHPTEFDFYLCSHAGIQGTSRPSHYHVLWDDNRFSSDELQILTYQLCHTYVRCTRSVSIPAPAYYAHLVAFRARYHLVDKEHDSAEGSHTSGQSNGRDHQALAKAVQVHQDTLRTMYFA
Substance,K726me1 level on FH-AGO2 in in vitro demethylation assay [1],K726me1 level in in vitro demethylation assay (FH-AGO2-K726R)
FH-LSD1 (Flag-HA-tagged LSD1 stably expressed in MCF-7 cells),FH-LSD1 but not FH-LSD1-K661A decreased K726me1 level on FH-AGO2,had no observable effects on FH-AGO2-K726R
FH-LSD1-K661A (catalytically compromised LSD1),FH-LSD1 but not FH-LSD1-K661A decreased K726me1 level on FH-AGO2,
